Measurements: publication PMC10576006, “Structural insights into the complex of oncogenic KRas4B^G12V and Rgl2, a RalA/B activator” (Life Science Alliance, 2023)

Target: T1, human wildtype KRas4B 1-169 (C-terminal truncated) (human, UniProt P01116-2 1-169)
T1 construct: human wildtype KRas4B isoform, residues 1-169, lacking the C-terminal hyper-variable region; Loaded with GTP for BLI; also called KRas4B^WT; KRas (WT); source: E. coli DE3 Rosetta, purified (Ni-sepharose, TEV cleavage, SEC); not shown: His6, N-terminal, cleaved
Assay: BLI; Octet R8; GST fusion (0.7 uM) immobilised on anti-GST biosensors; GTP-loaded KRas4B as analyte (200 nM-15 uM for Rgl2^RA, 20 nM-5 uM for BRAF^RBD); GF buffer (20 mM Tris pH 7.65, 100 mM NaCl, 5 mM MgCl2, 1 mM TCEP); 20°C; double referencing; 1:1 binding model
Conditions: both partners purified

B1: GST-Rgl2^RA (Ras association domain of human Rgl2, residues 643-740, fused with GST) (domain or fragment, UniProt O15211 643-740, looked up)
chain: GPGASDCRIIRVQMELGEDGSVYKSILVTSQDKAPSVISRVLKKNNRDSAVASEYELVQLLPGERELTIPASANVFYAMDGASHDFLLRQRRRSSTAT
notes: human Rgl2, residues 643-740, holding the Ras-associating (RA) domain (648-735 in UniProt O15211); A TEV site lies between GST and Rgl2^RA (vector pLEICS2); source: E. coli DE3 Rosetta, purified (glutathione beads, SEC); not shown: GST, N-terminal, kept
Kd: ~1480 nM
